Assays:
[1] = target: T1, NTF of c-CDCP1 Cut 3 ectodomain (ending after K369) (human, UniProt Q9H5V8 30-369); experiment: co-purification after co-transfection
T1 sequence (looked up): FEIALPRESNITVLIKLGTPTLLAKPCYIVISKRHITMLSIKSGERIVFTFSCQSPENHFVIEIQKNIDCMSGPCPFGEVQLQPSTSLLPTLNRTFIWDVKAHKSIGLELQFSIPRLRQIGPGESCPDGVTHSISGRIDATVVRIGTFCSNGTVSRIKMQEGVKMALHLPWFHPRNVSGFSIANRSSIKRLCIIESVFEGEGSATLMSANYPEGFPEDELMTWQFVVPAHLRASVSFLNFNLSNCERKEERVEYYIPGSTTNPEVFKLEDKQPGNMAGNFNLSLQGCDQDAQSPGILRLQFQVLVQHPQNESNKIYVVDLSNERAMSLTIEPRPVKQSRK

[2] = target: T2, NTF of c-CDCP1 Cut 1 ectodomain (ending after K365) (human, UniProt Q9H5V8 30-365); experiment: SEC
T2 sequence (looked up): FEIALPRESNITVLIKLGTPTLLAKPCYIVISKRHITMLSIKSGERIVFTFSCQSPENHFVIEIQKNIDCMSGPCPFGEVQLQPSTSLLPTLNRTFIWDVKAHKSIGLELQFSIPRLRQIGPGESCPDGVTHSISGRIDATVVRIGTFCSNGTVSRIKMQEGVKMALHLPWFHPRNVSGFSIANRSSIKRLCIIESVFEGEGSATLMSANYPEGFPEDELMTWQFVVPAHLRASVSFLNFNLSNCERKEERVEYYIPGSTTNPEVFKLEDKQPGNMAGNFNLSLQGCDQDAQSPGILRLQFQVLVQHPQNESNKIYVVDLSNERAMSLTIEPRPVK

[3] = target: T3, NTF of c-CDCP1 Cut 2 ectodomain (ending after R368) (human, UniProt Q9H5V8 30-368); experiment: SEC
T3 sequence (looked up): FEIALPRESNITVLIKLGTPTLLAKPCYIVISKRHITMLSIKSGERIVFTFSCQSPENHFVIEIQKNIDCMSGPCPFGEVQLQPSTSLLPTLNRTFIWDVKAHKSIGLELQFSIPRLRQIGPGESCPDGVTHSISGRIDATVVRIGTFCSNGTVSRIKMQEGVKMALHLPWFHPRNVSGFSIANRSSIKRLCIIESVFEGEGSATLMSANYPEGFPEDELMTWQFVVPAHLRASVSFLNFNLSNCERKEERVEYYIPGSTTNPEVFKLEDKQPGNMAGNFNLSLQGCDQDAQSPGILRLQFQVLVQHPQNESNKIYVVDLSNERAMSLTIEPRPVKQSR

B1: CTF ectodomain of c-CDCP1 Cut 3 (starting after K369) (domain or fragment, human, UniProt Q9H5V8 370-665, looked up)
chain: FVPGCFVCLESRTCSSNLTLTSGSKHKISFLCDDLTRLWMNVEKTISCTDHRYCQRKSYSLQVPSDILHLPVELHDFSWKLLVPKDRLSLVLVPAQKLQQHTHEKPCNTSFSYLVASAIPSQDLYFGSFCPGGSIKQIQVKQNISVTLRTFAPSFQQEASRQGLTVSFIPYFKEEGVFTVTPDTKSKVYLRTPNWDRGLPSLTSVSWNISVPRDQVACLTFFKERSGVVCQTGRAFMIIQEQRTRAEEIFSLDEDVLPKPSFHHHSFWVNISNCSPTSGKQLDLLFSVTLTPRTVD
B1: binds [1].

B2: CTF ectodomain of c-CDCP1 Cut 1 (starting after K365) (domain or fragment, human, UniProt Q9H5V8 366-665, looked up)
chain: QSRKFVPGCFVCLESRTCSSNLTLTSGSKHKISFLCDDLTRLWMNVEKTISCTDHRYCQRKSYSLQVPSDILHLPVELHDFSWKLLVPKDRLSLVLVPAQKLQQHTHEKPCNTSFSYLVASAIPSQDLYFGSFCPGGSIKQIQVKQNISVTLRTFAPSFQQEASRQGLTVSFIPYFKEEGVFTVTPDTKSKVYLRTPNWDRGLPSLTSVSWNISVPRDQVACLTFFKERSGVVCQTGRAFMIIQEQRTRAEEIFSLDEDVLPKPSFHHHSFWVNISNCSPTSGKQLDLLFSVTLTPRTVD
B2: binds [2].

B3: CTF ectodomain of c-CDCP1 Cut 2 (starting after R368) (domain or fragment, human, UniProt Q9H5V8 369-665, looked up)
chain: KFVPGCFVCLESRTCSSNLTLTSGSKHKISFLCDDLTRLWMNVEKTISCTDHRYCQRKSYSLQVPSDILHLPVELHDFSWKLLVPKDRLSLVLVPAQKLQQHTHEKPCNTSFSYLVASAIPSQDLYFGSFCPGGSIKQIQVKQNISVTLRTFAPSFQQEASRQGLTVSFIPYFKEEGVFTVTPDTKSKVYLRTPNWDRGLPSLTSVSWNISVPRDQVACLTFFKERSGVVCQTGRAFMIIQEQRTRAEEIFSLDEDVLPKPSFHHHSFWVNISNCSPTSGKQLDLLFSVTLTPRTVD
B3: binds [3].

Source: paper doi:10.1101/2021.06.14.448427 (bioRxiv, 2021)
